Test results as given in patent publication US7741051B2, “Soluble ectodomain fragments of MET and uses thereof” (Medical Research Council, priority 2003, dated 2010).

Experiments:
[1] = Binding of dimeric MET constructs to HiTrap Heparin HP column, NaCl gradient elution; conditions: 50 mM phosphate, 150 mM NaCl, pH 7.4, linear NaCl gradient
Experimental: (§1) Immulon B 96 well plates were coated with recombinant, single chain (R494E) or two chain HGF/SF in 50 mM phosphate buffer, pH 6.0. Wells were blocked, incubated with dimeric MET constructs at the concentrations shown in FIGS. 2a and b and bound MET was detected with HRP-conjugated rabbit anti-human IgG (Dako P0214). For heparin binding, dimeric MET constructs were loaded on a HiTrap Heparin HP column (Amersham Biosciences 17-0406-01) in 50 mM phosphate, 150 mM NaCl, pH 7.4 and eluted with a linear gradient of NaCl as shown in FIGS. 2c and d.

[2] = tested on: single chain (R494E) or two chain HGF/SF; assay: Solid phase binding of dimeric MET deletions to HGF/SF; conditions: plates coated with single chain (R494E) or two chain HGF/SF; bound MET detected with HRP anti-human IgG
Sequence of single chain (R494E) or two chain HGF/SF (P14210 32-493 limits assumed, stated change not applied): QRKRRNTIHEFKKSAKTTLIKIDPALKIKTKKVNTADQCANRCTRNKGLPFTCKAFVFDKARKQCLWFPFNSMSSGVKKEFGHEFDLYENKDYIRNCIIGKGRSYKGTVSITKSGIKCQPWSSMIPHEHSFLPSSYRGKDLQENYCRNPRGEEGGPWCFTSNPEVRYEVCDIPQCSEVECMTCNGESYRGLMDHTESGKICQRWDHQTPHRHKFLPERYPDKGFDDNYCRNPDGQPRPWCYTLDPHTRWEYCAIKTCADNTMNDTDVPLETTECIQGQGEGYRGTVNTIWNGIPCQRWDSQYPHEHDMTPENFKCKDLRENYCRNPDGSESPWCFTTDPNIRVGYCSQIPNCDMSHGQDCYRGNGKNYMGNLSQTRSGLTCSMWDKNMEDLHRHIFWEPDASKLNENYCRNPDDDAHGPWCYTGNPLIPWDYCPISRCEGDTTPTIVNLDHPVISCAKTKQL
Experimental: as §1

[3] = target: T1, recombinant single chain HGF/SF (R494E) (human, UniProt P14210 32-728); assay: solid phase assay, HGF/SF coated, bound MET detected with HRP anti-human IgG
T1 construct: also called single chain (R494E) HGF/SF
T1 sequence (P14210 32-728 R494E limits assumed): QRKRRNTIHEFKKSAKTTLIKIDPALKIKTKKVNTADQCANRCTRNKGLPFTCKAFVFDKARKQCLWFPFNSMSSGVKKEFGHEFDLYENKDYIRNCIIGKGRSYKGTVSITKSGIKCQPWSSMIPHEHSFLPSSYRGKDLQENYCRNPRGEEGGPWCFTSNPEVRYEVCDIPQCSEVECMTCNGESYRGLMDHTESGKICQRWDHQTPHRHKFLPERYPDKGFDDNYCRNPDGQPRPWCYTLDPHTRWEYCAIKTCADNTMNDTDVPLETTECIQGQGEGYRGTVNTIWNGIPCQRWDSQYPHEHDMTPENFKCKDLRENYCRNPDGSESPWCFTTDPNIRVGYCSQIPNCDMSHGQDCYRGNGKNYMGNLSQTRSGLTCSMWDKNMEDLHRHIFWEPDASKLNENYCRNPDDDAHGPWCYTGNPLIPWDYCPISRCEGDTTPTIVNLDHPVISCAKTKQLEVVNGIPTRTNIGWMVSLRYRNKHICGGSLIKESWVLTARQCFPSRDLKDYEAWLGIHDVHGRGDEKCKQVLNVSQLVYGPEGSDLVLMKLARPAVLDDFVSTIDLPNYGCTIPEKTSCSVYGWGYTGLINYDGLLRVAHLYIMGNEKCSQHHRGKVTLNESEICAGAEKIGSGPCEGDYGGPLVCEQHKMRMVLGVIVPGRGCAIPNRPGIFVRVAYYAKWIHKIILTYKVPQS
Experimental: as §1

[4] = target: T2, recombinant two chain HGF/SF (human, UniProt P14210 32-494; P14210 495-728); assay: as above
T2 construct: also called mature (two-chain) HGF/SF
T2 sequence (P14210 32-494 limits assumed, chain 1 of 2): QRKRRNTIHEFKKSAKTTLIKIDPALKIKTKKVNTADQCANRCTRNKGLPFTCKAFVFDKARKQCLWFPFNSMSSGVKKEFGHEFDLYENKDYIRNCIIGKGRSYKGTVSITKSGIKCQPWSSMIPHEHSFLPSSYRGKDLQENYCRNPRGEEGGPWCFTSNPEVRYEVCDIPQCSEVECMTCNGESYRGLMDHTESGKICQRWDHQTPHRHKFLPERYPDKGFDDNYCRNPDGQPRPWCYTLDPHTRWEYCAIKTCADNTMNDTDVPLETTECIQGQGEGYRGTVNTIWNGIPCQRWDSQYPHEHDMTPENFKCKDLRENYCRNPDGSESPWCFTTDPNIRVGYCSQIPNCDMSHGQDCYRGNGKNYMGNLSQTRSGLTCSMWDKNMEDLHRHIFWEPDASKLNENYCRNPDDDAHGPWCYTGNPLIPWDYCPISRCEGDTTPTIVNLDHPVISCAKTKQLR
T2 sequence (P14210 495-728 limits assumed, chain 2 of 2): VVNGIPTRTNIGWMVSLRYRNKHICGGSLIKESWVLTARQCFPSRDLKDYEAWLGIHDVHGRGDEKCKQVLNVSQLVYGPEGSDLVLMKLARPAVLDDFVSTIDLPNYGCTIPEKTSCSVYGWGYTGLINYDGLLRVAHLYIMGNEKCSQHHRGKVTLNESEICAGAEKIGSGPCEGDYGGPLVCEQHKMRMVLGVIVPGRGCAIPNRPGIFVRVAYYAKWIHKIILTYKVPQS
Experimental: as §1

Molecule | Binding to immobilised heparin [1] | Binding to HGF/SF [2] | other results
HGF/SF: hepatocyte growth factor/scatter factor, ligand of MET | strong heparin binding | – | –
25-519GH: dimeric MET aa 25-519 fused to human γ1 Fc, hexa-histidine tagged (protein, left off: a dimerising Fc or GST) ECKEALAKSEMNVNMKYQLPNFTAETPIQNVILHEHHIFLGATNYIYVLNEEDLQKVAEYKTGPVLEHPDCFPCQDCSSKANLSGGVWKDNINMALVVDTYYDDQLISCGSVNRGTCQRHVFPHNHTADIQSEVHCIFSPQIEEPSQCPDCVVSALGAKVLSSVKDRFINFFVGNTINSSYFPDHPLHSISVRRLKETKDGFMFLTDQSYIDVLPEFRDSYPIKYVHAFESNNFIYFLTVQRETLDAQTFHTRIIRFCSINSGLHSYMEMPLECILTEKRKKR chain (part 1 of 2): STKKEVFNILQAAYVSKPGAQLARQIGASLNDDILFGVFAQSKPDSAEPMDRSAMCAFPIKYVNDFFNKIVNKNNVRCLQHFYGPNHEHCFNRTLLRNSSGCEARRDEYRTEFTTALQRVDLFMGQFSEVLLTSISTFIKGDLTIANLGTSEGRFMQVVVSRSGPSTPHVNFLLDSHPVSPEVIVEHTLNQNGYTLVITGKKITKIPLNGLG chain (part 2 of 2): HHHHHH | indistinguishable from full length MET | readily measurable | Binding to immobilised heparin ([1]; listed as MET 25-519GH): showed binding
25-567GH: dimeric MET aa 25-567 fused to human γ1 Fc, hexa-histidine tagged (protein, left off: a dimerising Fc or GST) ECKEALAKSEMNVNMKYQLPNFTAETPIQNVILHEHHIFLGATNYIYVLNEEDLQKVAEYKTGPVLEHPDCFPCQDCSSKANLSGGVWKDNINMALVVDTYYDDQLISCGSVNRGTCQRHVFPHNHTADIQSEVHCIFSPQIEEPSQCPDCVVSALGAKVLSSVKDRFINFFVGNTINSSYFPDHPLHSISVRRLKETKDGFMFLTDQSYIDVLPEFRDSYPIKYVHAFESNNFIYFLTVQRETLDAQTFHTRIIRFCSINSGLHSYMEMPLECILTEKRKKR chain (part 1 of 2): STKKEVFNILQAAYVSKPGAQLARQIGASLNDDILFGVFAQSKPDSAEPMDRSAMCAFPIKYVNDFFNKIVNKNNVRCLQHFYGPNHEHCFNRTLLRNSSGCEARRDEYRTEFTTALQRVDLFMGQFSEVLLTSISTFIKGDLTIANLGTSEGRFMQVVVSRSGPSTPHVNFLLDSHPVSPEVIVEHTLNQNGYTLVITGKKITKIPLNGLGCRHFQSCSQCLSAPPFVQCGWCHDKCVRSEECLSGTWTQQICLPAIYK chain (part 2 of 2): HHHHHH | – | readily measurable | –
MET 567-932GH (Fc fusion, IG leader left out; Dimer through the Fc; also called MET567-928GH; not shown: hinge, CH2 and CH3 domains of the human gamma1 antibody constant region) chain (part 1 of 2): KVFPNSAPLEGGTRLTICGWDFGFRRNNKFDLKKTRVLLGNESCTLTLSESTMNTLKCTVGPAMNKHFNMSIIISNGHGTTQYSTFSYVDPVITSISPKYGPMAGGTLLTLTGNYLNSGNSRHISIGGKTCTLKSVSNSILECYTPAQTISTEFAVKLKIDLANRETSIFSYREDPIVYEIHPTKSFISGGSTITGVGKNLNSVSVPRMVINVHEAGRNFTVACQHRSNSEIICCTTPSLQQLNLQLPLKTKAFFMLDGILSKYFDLIYVHNPVFKPFEKPVMISMGNENVLEIKGNDIDPEAVKGEVLKVGNKSCENIHLHSEAVLCTVPNDLLKLNSELNIEWKQAISSTVLGKVIVQPDQNFT chain (part 2 of 2): HHHHHH | – | – | binding result [3]: no binding; binding result [4]: no binding
MET567-928GH: dimeric C-terminal part of the MET ectodomain fused to human γ1 Fc, hexa-histidine tagged (protein, left off: a dimerising Fc or GST) chain (part 1 of 2): KVFPNSAPLEGGTRLTICGWDFGFRRNNKFDLKKTRVLLGNESCTLTLSESTMNTLKCTVGPAMNKHFNMSIIISNGHGTTQYSTFSYVDPVITSISPKYGPMAGGTLLTLTGNYLNSGNSRHISIGGKTCTLKSVSNSILECYTPAQTISTEFAVKLKIDLANRETSIFSYREDPIVYEIHPTKSFISGGSTITGVGKNLNSVSVPRMVINVHEAGRNFTVACQHRSNSEIICCTTPSLQQLNLQLPLKTKAFFMLDGILSKYFDLIYVHNPVFKPFEKPVMISMGNENVLEIKGNDIDPEAVKGEVLKVGNKSCENIHLHSEAVLCTVPNDLLKLNSELNIEWKQAISSTVLGKVIVQPDQNFT chain (part 2 of 2): HHHHHH | no binding | no binding | Binding to immobilised heparin ([1]; listed as MET 567-928GH): none
